From PMC11086051

Experiments:
SpoVG [1] = molecular target: T1, SpoVG (Borrelia burgdorferi, UniProt O51726 1-97); assay: competition
T1 sequence: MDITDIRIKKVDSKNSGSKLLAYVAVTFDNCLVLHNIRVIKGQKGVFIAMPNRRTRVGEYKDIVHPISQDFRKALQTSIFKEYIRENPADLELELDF

SpoVG [2] = molecular target: T1, SpoVG; assay: EMSA
SpoVG [3] = molecular target: T1, SpoVG; assay: competition; remark: listed apart in the source

Row | Binder | IC50 (SpoVG [1]) [nM] | Kd (SpoVG [2]) [nM] | binding result (SpoVG [3])
1 | UAUGUACUUUUUGCGGGAGGCUUAUAA (ssRNA) [spoVG RNA] | 1030 | 59 | 
2 | UAUGUACUUAAAGCGGGAGGCUUAUAA (ssRNA) [RNA-20] |  |  | binds
3 | UAUGUACAAAAAGCGGGAGGCUUAUAA (ssRNA) [RNA-03] |  |  | binds
4 | UAUGUACUUUAAGCGGGAGGCUUAUAA (ssRNA) [RNA-17] |  |  | binds
